The target in this experiment is p27^Kip1–His6 (UniProt P46527).
UniProt P46527, sequence (P46527 whole entry): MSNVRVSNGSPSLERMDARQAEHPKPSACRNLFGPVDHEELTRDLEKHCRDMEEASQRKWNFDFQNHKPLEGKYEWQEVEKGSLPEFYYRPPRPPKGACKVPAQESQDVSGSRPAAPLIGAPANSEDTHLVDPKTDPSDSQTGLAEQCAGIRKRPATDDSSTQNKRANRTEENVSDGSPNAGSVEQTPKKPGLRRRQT

“β1–His6 (full-length β1, wild type) (from UniProt P28072 1-239) (enzyme)” gave an in vitro degradation of purified p27^Kip1–His6 (1 μg) by purified β1–His6 (2 μg) at 37°C, immunoblot, time course up to 90 min of 40%.

(Values after paper PMC3712487.)
